This data set deals with ZF6-DBD (AAV8-CMV delivered) (artificial (designed)). The data set can be described thus: cell_activity. As to conditions: pig retina, rhodopsin transcript by qRT-PCR, 15 days after AAV8 injection. For orientation: Quantitative PCR measures a nucleic acid by following its amplification.

The text below walks through data of patent US20160289284.

“porcine RHO proximal promoter / TSS region”: the activity was found to be 45 % repression.
